This note sets out measurements from patent publication US20060140934A1 (Amgen, published 2006).

The target in assay [1] is FcRn. Nature of the assay: Biacore FcRn binding. A general note: SPR reads the build-up and loss of mass on a sensor chip optically.
Assay [2] concerns the target T1, myostatin (UniProt O14793 267-375, limits assumed).
T1 sequence (looked up): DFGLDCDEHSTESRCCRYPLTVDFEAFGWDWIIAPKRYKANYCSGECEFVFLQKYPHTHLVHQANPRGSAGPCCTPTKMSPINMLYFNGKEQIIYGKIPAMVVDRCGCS
The assay can be described thus: cell-based or functional assay.

Chain of FcRn (chain, as listed by the source, chain 1 of 2): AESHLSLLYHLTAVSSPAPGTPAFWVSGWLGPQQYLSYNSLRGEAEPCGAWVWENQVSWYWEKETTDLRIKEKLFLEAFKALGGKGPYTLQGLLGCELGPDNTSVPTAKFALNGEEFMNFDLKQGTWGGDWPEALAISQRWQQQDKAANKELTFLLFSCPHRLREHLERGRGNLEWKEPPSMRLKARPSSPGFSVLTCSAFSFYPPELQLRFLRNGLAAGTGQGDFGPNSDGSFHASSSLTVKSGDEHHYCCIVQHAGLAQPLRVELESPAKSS
Chain of FcRn (chain, as listed by the source, chain 2 of 2): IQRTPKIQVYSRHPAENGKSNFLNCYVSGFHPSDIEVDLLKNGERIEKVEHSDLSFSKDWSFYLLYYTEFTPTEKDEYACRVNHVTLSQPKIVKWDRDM

B1: Fc-Loop TN8-19-7 construct with insertion at Y77/N78 (CH2 domain) (Fc fusion, not shown: small tags and cut ends)
chain: MDKTHTCPPCPAPELLGGPSVFLFPPKPKDTLMISRTPEVTCVVVDVSHEDPEVKFNWYVDGVEVHNAKTKPREEQYLADHGQCIRWPWMCPPEGWENSTYRVVSVLTVLHQDWLNGKEYKCKVSNKALPAPIEKTISKAKGQPREPQVYTLPPSRDELTKNQVSLTCLVKGFYPSDIAVEWESNGQPENNYKTTPPVLDSDGSFFLYSKLTVDKSRWQQGNVFSCSVMHEALHNHYTQKSLSLSPGK
In the case of B1, in assay [1], the EC50 was around 680 nM.

B2: Fc-Loop TN8-19-7 construct with insertion at H49/E50 (CH2 domain) (Fc fusion, not shown: small tags and cut ends)
chain: MDKTHTCPPCPAPELLGGPSVFLFPPKPKDTLMISRTPEVTCVVVDVSHLADHGQCIRWPWMCPPEGWEEDPEVKFNWYVDGVEVHNAKTKPREEQYNSTYRVVSVLTVLHQDWLNGKEYKCKVSNKALPAPIEKTISKAKGQPREPQVYTLPPSRDELTKNQVSLTCLVKGFYPSDIAVEWESNGQPENNYKTTPPVLDSDGSFFLYSKLTVDKSRWQQGNVFSCSVMHEALHNHYTQKSLSLSPGK
In turn, B2 showed a concentration for a half-maximal effect (EC50) in assay [1] of around 680 nM.

B3: Fc-loop TN8-19-07 (clone #6951) (Fc fusion)
chain: MDKTHTCPPCPAPELLGGPSVFLFPPKPKDTLMISRTPEVTCVVVDVSHEDPEVKFNWYVDGVEVHNAKTKPREEQYNSTYRVVSVLTVLHQDWLNGKEYKCKVSNKALPAPIEKTISKAKGQPREPQVYTLPPSRDELGGLADHGQCIRWPWMCPPEGWEGGTKNQVSLTCLVKGFYPSDIAVEWESNGQPENNYKTTPPVLDSDGSFFLYSKLTVDKSRWQQGNVFSCSVMHEALHNHYTQKSLSLSPGK
B3: the “IC50(nM), in vitro cell based myostatin inhibition assay (luciferase reporter, C2C12 pMARE-luc)” value in assay [2] was determined as 0.834 nM.

B4: Fc-Loop TN8-19-7 construct with insertion at L139/T140 and asymmetric Gly4/Gly6 linkers (CH3 domain) (Fc fusion)
chain: MDKTHTCPPCPAPELLGGPSVFLFPPKPKDTLMISRTPEVTCVVVDVSHEDPEVKFNWYVDGVEVHNAKTKPREEQYNSTYRVVSVLTVLHQDWLNGKEYKCKVSNKALPAPIEKTISKAKGQPREPQVYTLPPSRDELGGGGLADHGQCIRWPWMCPPEGWEGGGGGGTKNQVSLTCLVKGFYPSDIAVEWESNGQPENNYKTTPPVLDSDGSFFLYSKLTVDKSRWQQGNVFSCSVMHEALHNHYTQKSLSLSPGK
B4: in assay [2], the “IC50(nM), in vitro cell based myostatin inhibition assay (luciferase reporter, C2C12 pMARE-luc)” value turned out to be 0.873 nM.

A word on the EC50: it is the concentration that produces a half-maximal response. Lower therefore signals an effect from little substance.
